Source: patent publication US20120021972A1 (CADILA HEALTHCARE, published 2012)
Starred links: 1 amine or outer side, 2 acyl side, 3 side chain; linkers in the order of their positions; H or OH if unused. Non-standard residues stand in square brackets, D forms with d. No end group written: not given here. *: point of attachment. NMe2F‑APPA = N-methyl-2-amino-5-(2-fluorophenyl)pentanoic acid, CN([C@@H](CCCc1ccccc1F)C(=O)[*:2])[*:1]; ACPP = 2-amino-5-(3-chlorophenyl)pentanoic acid, O=C([C@H](CCCc1cccc(Cl)c1)N[*:1])[*:2]; Bip(2'-Et-4'-OMe) = CCc1cc(OC)ccc1-c1ccc(C[C@H](N)C(=O)O)cc1; Leu(5,5,5,5',5',5'-F6) = N[C@@H](CC(C(F)(F)F)C(F)(F)F)C(=O)O; Nva(5-(3,5-Me2Ph)) = Cc1cc(C)cc(CCC[C@H](N)C(=O)O)c1; 2F‑APPA = 2-amino-5-(2-fluorophenyl)pentanoic acid; αMePhe(2-F) = C[C@](N)(Cc1ccccc1F)C(=O)O; NMeBip(OMe) = N-methylated Bip(OMe); hhPhe = N[C@@H](CCCc1ccccc1)C(=O)O; NMeD = CN[C@@H](CC(=O)O)C(=O)O; aThr = C[C@H](O)[C@H](N)C(=O)O; NMeAPPA = not defined here; CNB = not defined here; Ac3c = NC1(C(=O)O)CC1; Aib = CC(C)(N)C(=O)O; Moc = COC(=O)*

B1: Seq. ID. No. 228: H-Aib-(Hfl)-G-T(allo)-(α-Me-2F-Phe)-T(allo)-SD-Bip(OMe)-(APPA) (peptide)
peptide: H[Aib][Leu(5,5,5,5',5',5'-F6)]G[aThr][αMePhe(2-F)][aThr]SD[Bip(2'-Et-4'-OMe)][hhPhe]
B2: Seq. ID. No. 144: H-Aib-(CNB)-G-T(allo)-(α-Me-2F-Phe)-T(allo)-SD-((NMe)Bip(OMe))-((NMe)(2F-APPA)) (peptide)
peptide: H[Aib][CNB]G[aThr][αMePhe(2-F)][aThr]SD[NMeBip(OMe)][NMe2F‑APPA]
modifications: reading uncertain
B3: Seq. ID. No. 205: CH3CO-H-Aib-(CNB)-GT-(α-Me-2F-Phe)-TSD-Bip(OMe)-(APPA) (peptide)
peptide: Ac-H[Aib][CNB]GT[αMePhe(2-F)]TSD[Bip(2'-Et-4'-OMe)][hhPhe]
modifications: reading uncertain
B4: Seq. ID. No. 19: H-Aib-QGTFTSD-Bip(OMe)-(ACPP) (peptide)
peptide: H[Aib]QGTFTSD[Bip(2'-Et-4'-OMe)][ACPP]
B5: Seq. ID. No. 130: H-Aib-(CNB)-G-T(allo)-(α-Me-2F-Phe)-T(allo)-SD-Bip(OMe)-((NMe)(APPA)) (peptide)
peptide: H[Aib][CNB]G[aThr][αMePhe(2-F)][aThr]SD[Bip(2'-Et-4'-OMe)][NMeAPPA]
modifications: reading uncertain
B6: Seq. ID. No. 202: H-Aib-(CNB)-G-T(allo)-(α-Me-2F-Phe)-T(allo)-SD-(CH2)-Bip(OMe)-(CH2)-(APPA) (peptide)
peptide: H[Aib][CNB]G[aThr][αMePhe(2-F)][aThr]SD[Bip(2'-Et-4'-OMe)][hhPhe]
modifications: reading uncertain; also: reduced (CH2) bonds between 9-10 and 10-11
B7: Seq. ID. No. 194: CH3OCO-H-Aib-QGT-(α-Me-2F-Phe)-TSD-(CH2)-Bip(OMe)-(CH2)-(APPA) (peptide)
peptide: Moc-H[Aib]QGT[αMePhe(2-F)]TSD[Bip(2'-Et-4'-OMe)][hhPhe]
modifications: also: reduced (CH2) bonds between 9-10 and 10-11
B8: Seq. ID. No. 22: H-(ACP)-QGTFTSD-Bip(OMe)-(ADMP) (peptide)
peptide: H[Ac3c]QGTFTSD[Bip(2'-Et-4'-OMe)][Nva(5-(3,5-Me2Ph))]
B9: Seq. ID. No. 154: H-Aib-(CNB)-G-T(allo)-(α-Me-2F-Phe)-T(allo)-S-(NMe)D-((NMe)Bip(OMe))-((NMe)(APPA)) (peptide)
peptide: H[Aib][CNB]G[aThr][αMePhe(2-F)][aThr]S[NMeD][NMeBip(OMe)][NMeAPPA]
modifications: reading uncertain
B10: Seq. ID. No. 156: H-Aib-(CNB)-G-T(allo)-(α-Me-2F-Phe)-T(allo)-S-(NMe)D-((NMe)Bip(OMe))-((NMe)(2F-APPA)) (peptide)
peptide: H[Aib][CNB]G[aThr][αMePhe(2-F)][aThr]S[NMeD][NMeBip(OMe)][NMe2F‑APPA]
modifications: reading uncertain
B11: Seq. ID. No. 204: H-Aib-(CNB)-G-T(allo)-(α-Me-2F-Phe)-T(allo)-SD-(CH2)-Bip(OMe)-(CH2)-(2F-APPA) (peptide)
peptide: H[Aib][CNB]G[aThr][αMePhe(2-F)][aThr]SD[Bip(2'-Et-4'-OMe)][2F‑APPA]
modifications: reading uncertain; also: reduced (CH2) bonds Z9-Z10 and Z10-Z11
B12: Seq. ID. No. 178: H-Aib-(CNB)-G-T(allo)-(α-Me-2F-Phe)-T(allo)-SD-(C═S)-Bip(OMe)-(C═S)-(APPA) (peptide)
peptide: H[Aib][CNB]G[aThr][αMePhe(2-F)][aThr]SD[Bip(2'-Et-4'-OMe)][hhPhe]
modifications: reading uncertain; also: thioamide bonds between residues 9-10 and 10-11
B13: Seq. ID. No. 166: H-Aib-(CNB)-G-T(allo)-(α-Me-2F-Phe)-T(allo)-SD-Bip(OMe)-(C═S)-(APPA) (peptide)
peptide: H[Aib][CNB]G[aThr][αMePhe(2-F)][aThr]SD[Bip(2'-Et-4'-OMe)][hhPhe]
modifications: reading uncertain; also: thioamide bond between residues 10 and 11
B14: Seq. ID. No. 200: CH3OCO-H-Aib-QG-T(allo)-(α-Me-2F-Phe)-T(allo)-SD-(CH2)-Bip(OMe)-(CH2)-(2F-APPA) (peptide)
peptide: Moc-H[Aib]QG[aThr][αMePhe(2-F)][aThr]SD[Bip(2'-Et-4'-OMe)][2F‑APPA]
modifications: also: reduced (CH2) bonds between 9-10 and 10-11
B15: Seq. ID. No. 168: H-Aib-(CNB)-G-T(allo)-(α-Me-2F-Phe)-T(allo)-SD-Bip(OMe)-(C═S)-(2F-APPA) (peptide)
peptide: H[Aib][CNB]G[aThr][αMePhe(2-F)][aThr]SD[Bip(2'-Et-4'-OMe)][2F‑APPA]
modifications: reading uncertain; also: thioamide bond between residues 10 and 11
B16: Seq. ID. No. 207: CH3CO-H-Aib-(CNB)-GT-(α-Me-2F-Phe)-TSD-Bip(OMe)-(2F-APPA) (peptide)
peptide: Ac-H[Aib][CNB]GT[αMePhe(2-F)]TSD[Bip(2'-Et-4'-OMe)][2F‑APPA]
modifications: reading uncertain
B17: Seq. ID. No. 206: CH3OCO-H-Aib-(CNB)-GT-(α-Me-2F-Phe)-TSD-Bip(OMe)-(APPA) (peptide)
peptide: Moc-H[Aib][CNB]GT[αMePhe(2-F)]TSD[Bip(2'-Et-4'-OMe)][hhPhe]
modifications: reading uncertain

Experiments:
human GLP-1 receptor = human GLP-1 receptor (human, UniProt P43220 24-463); experiment: cell-based or functional assay
Chain of human GLP-1 receptor (P43220 24-463): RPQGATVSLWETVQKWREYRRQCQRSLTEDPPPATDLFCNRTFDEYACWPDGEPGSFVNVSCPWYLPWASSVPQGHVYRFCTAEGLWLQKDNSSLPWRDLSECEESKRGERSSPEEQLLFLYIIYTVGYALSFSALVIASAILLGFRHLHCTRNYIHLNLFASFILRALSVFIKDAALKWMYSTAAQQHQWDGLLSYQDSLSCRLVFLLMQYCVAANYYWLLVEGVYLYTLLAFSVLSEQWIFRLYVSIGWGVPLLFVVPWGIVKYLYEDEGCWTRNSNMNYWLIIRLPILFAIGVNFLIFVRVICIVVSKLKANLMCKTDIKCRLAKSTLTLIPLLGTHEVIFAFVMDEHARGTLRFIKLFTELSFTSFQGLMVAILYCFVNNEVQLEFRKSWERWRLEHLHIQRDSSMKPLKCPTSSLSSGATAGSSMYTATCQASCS

human glucagon receptor = human glucagon receptor (human, UniProt P47871 26-477); experiment: cell-based or functional assay

Binder	cAMP release, % activity, 1 nM (human GLP-1 receptor)	cAMP release, % activity, 10 nM (human GLP-1 receptor)	cAMP release, % activity, 100 nM (human GLP-1 receptor)	cAMP release, % activity, 1 µM (human GLP-1 receptor)	cAMP release, % activity, 10 µM (human GLP-1 receptor)	inhibition of cAMP production, 1 nM (human glucagon receptor)	inhibition of cAMP production, 10 nM (human glucagon receptor)	inhibition of cAMP production, 100 nM (human glucagon receptor)	inhibition of cAMP production, 1 µM (human glucagon receptor)	inhibition of cAMP production, 10 µM (human glucagon receptor)
B1	99%	99%	99%	99%	99%	19 pmol/ml/µg prt	17 pmol/ml/µg prt	15 pmol/ml/µg prt	14 pmol/ml/µg prt	12 pmol/ml/µg prt
B2	55%	89%	93%	99%	99%	5 pmol/ml/µg prt	3 pmol/ml/µg prt	0 pmol/ml/µg prt	0 pmol/ml/µg prt	0 pmol/ml/µg prt
B3	96%	99%	99%	99%	99%	4 pmol/ml/µg prt	2 pmol/ml/µg prt	0 pmol/ml/µg prt	0 pmol/ml/µg prt	0 pmol/ml/µg prt
B4	99%	99%	99%	99%	99%	0 pmol/ml/µg prt	0 pmol/ml/µg prt	0 pmol/ml/µg prt	0 pmol/ml/µg prt	0 pmol/ml/µg prt
B5	39%	81%	89%	96%	99%	5 pmol/ml/µg prt	3 pmol/ml/µg prt	1 pmol/ml/µg prt	0 pmol/ml/µg prt	0 pmol/ml/µg prt
B6	99%	99%	99%	99%	99%	9 pmol/ml/µg prt	6 pmol/ml/µg prt	5 pmol/ml/µg prt	3 pmol/ml/µg prt	0 pmol/ml/µg prt
B7	38%	77%	85%	94%	97%	18 pmol/ml/µg prt	16 pmol/ml/µg prt	12 pmol/ml/µg prt	8 pmol/ml/µg prt	6 pmol/ml/µg prt
B8	99%	99%	99%	99%	99%	17 pmol/ml/µg prt	15 pmol/ml/µg prt	12 pmol/ml/µg prt	8 pmol/ml/µg prt	6 pmol/ml/µg prt
B9	60%	92%	98%	99%	99%	9 pmol/ml/µg prt	6 pmol/ml/µg prt	5 pmol/ml/µg prt	3 pmol/ml/µg prt	0 pmol/ml/µg prt
B10	86%	99%	99%	99%	99%	5 pmol/ml/µg prt	2 pmol/ml/µg prt	0 pmol/ml/µg prt	0 pmol/ml/µg prt	0 pmol/ml/µg prt
B11	96%	99%	99%	99%	99%	6 pmol/ml/µg prt	5 pmol/ml/µg prt	2 pmol/ml/µg prt	0 pmol/ml/µg prt	0 pmol/ml/µg prt
B12	39%	80%	86%	95%	98%	0 pmol/ml/µg prt	0 pmol/ml/µg prt	0 pmol/ml/µg prt	0 pmol/ml/µg prt	0 pmol/ml/µg prt
B13	96%	99%	99%	99%	99%	19 pmol/ml/µg prt	17 pmol/ml/µg prt	15 pmol/ml/µg prt	14 pmol/ml/µg prt	12 pmol/ml/µg prt
B14	55%	88%	92%	99%	99%	10 pmol/ml/µg prt	8 pmol/ml/µg prt	6 pmol/ml/µg prt	4 pmol/ml/µg prt	1 pmol/ml/µg prt
B15	96%	99%	99%	99%	99%	21 pmol/ml/µg prt	19 pmol/ml/µg prt	18 pmol/ml/µg prt	18 pmol/ml/µg prt	16 pmol/ml/µg prt
B16	40%	81%	89%	96%	99%	0 pmol/ml/µg prt	0 pmol/ml/µg prt	0 pmol/ml/µg prt	0 pmol/ml/µg prt	0 pmol/ml/µg prt
B17	39%	80%	86%	95%	98%	0 pmol/ml/µg prt	0 pmol/ml/µg prt	0 pmol/ml/µg prt	0 pmol/ml/µg prt	0 pmol/ml/µg prt
